Values quoted from earlier work as cited in publication PMC4463550.

Experiments:
Cys645 = Cys645 (UniProt position 645, HGEVHCGTNVR); assay: chemical modification; conditions: PAD4, no substrate; calcium state not stated
His471 = His471 (UniProt position 471, WLSVGHVDEFL); conditions: PAD4; state not stated
PAD4 (Homo sapiens) = PAD4 (Homo sapiens) (UniProt Q9UM07)
Cys647 = Cys647 (UniProt position 647, LGEVHCGTNVR); assay: chemical modification; conditions: calcium state not stated

PAD4, sequence (Q9UM07 whole entry): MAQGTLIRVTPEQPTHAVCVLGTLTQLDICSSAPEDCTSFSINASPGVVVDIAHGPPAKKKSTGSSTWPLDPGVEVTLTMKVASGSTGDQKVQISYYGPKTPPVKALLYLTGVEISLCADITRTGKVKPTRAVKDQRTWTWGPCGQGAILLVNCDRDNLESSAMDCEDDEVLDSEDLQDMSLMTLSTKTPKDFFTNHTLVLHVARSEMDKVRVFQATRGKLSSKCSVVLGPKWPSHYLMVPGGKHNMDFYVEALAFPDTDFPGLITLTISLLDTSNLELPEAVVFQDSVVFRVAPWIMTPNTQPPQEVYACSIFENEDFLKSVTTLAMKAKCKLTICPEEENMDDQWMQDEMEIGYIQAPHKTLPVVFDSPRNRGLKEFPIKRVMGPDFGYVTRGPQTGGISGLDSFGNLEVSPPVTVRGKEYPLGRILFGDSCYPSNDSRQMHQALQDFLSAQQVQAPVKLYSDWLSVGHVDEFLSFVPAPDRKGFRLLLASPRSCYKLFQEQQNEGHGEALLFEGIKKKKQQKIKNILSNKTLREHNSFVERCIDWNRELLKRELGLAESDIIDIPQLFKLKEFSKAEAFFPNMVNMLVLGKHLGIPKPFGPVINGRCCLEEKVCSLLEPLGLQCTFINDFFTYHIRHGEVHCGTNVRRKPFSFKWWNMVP

Protein arginine deiminase 4 (PAD4) (Homo sapiens)
pKa (Cys645): ≈ 8.3
pKa (His471): ∼7.3

PAD4 (from UniProt Q9UM07)
Kd (PAD4 (Homo sapiens)): 450 nM

Protein arginine deiminase 2 (PAD2) (Homo sapiens)
pKa (Cys647; PAD2, no substrate): 8.2
pKa (Cys647; PAD2 reacting with the substrate-mimicking, positively charged inactivator 2-chloroacetamidine): 7.2
